Tests used:
APEG-1 (Homo sapiens) = APEG-1 (Homo sapiens) (UniProt Q15772); assay: analytical ultracentrifugation (sedimentation equilibrium)
[1] = target: Aortic Preferentially Expressed Protein-1 (APEG-1), full-length construct (2-113) (human); assay: AUC; sedimentation equilibrium, dimer to monomers; 15 mM Tris-HCl pH 7.4, 0.1 M NaCl, 0.1 mM EDTA, 0.2% NaN3, 10°C; Kd from concentration-dependent Mw
[2] = target: ΔAPEG-1, truncated Aortic Preferentially Expressed Protein-1 (15-113) (human); assay: as above
[3] = target: ΔAPEG-1, truncated Aortic Preferentially Expressed Protein-1 (15-113) (human); assay: AUC; sedimentation equilibrium, dimer to monomers; 0 mM NaCl (salt series)

Sequence of Aortic Preferentially Expressed Protein-1 (APEG-1), full-length construct (2-113) (natural protein) (Q15772 2-113): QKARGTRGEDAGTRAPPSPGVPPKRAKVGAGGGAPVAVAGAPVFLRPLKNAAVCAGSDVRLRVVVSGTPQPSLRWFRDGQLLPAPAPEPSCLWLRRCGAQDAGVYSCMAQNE

Q: APEG-1, Q15772 was tested. Which Kd (APEG-1 (Homo sapiens)) did it give?
A: 2 µM

Q: For “Aortic Preferentially Expressed Protein-1 (APEG-1), full-length construct (2-113) (natural protein)”, which Kd [1] is on record?
A: 20 µM

Q: And the stoichiometry N [1]?
A: 2

Q: “ΔAPEG-1, truncated Aortic Preferentially Expressed Protein-1 (15-113) (domain or fragment)” was tested. Which Kd [2] did it give?
A: 20 µM

Q: And the stoichiometry N [2]?
A: 2

Q: And the Kd [3]?
A: 2 to 200 µM

From publication PMC1352370
